Results taken from EP2225268B1.
One block for each molecule: values may come before it.

Key:
[1] = biological target: Native NGAL purchased from Diagnostics Development (Uppsala, Sweden), non-reduced (UniProt P80188); assay: … sandwich CMIA, capture HYB 211-01, detection acridinium-HYB 211-02; NGAL 5 ng/mL
[2] = biological target: Wild-type recombinant human NGAL dimer calibrators treated with DTT (human) (UniProt P80188); assay: as above
[3] = biological target: Wild-type recombinant human NGAL dimer expressed in CHO cells (human) (UniProt P80188); assay: as above
[4] = biological target: Wild-type recombinant human NGAL monomer expressed in CHO cells (human) (UniProt P80188); assay: as above
[5] = biological target: Wild-type recombinant human NGAL dimer calibrators treated with DTT (human) (UniProt P80188); assay: … sandwich CMIA, capture HYB 211-01, detection acridinium-HYB 211-02; calibrator B, NGAL 5 ng/mL
[6] = biological target: Wild-type recombinant human NGAL dimer expressed in CHO cells (human) (UniProt P80188); assay: as above
[7] = biological target: Wild-type recombinant human NGAL monomer expressed in CHO cells (human) (UniProt P80188); assay: as above
[8] = biological target: Wild-type recombinant human NGAL dimer calibrators treated with DTT (human) (UniProt P80188); assay: … sandwich CMIA, capture HYB 211-01, detection acridinium-HYB 211-02; calibrator D, NGAL 250 ng/mL
[9] = biological target: Wild-type recombinant human NGAL dimer expressed in CHO cells (human) (UniProt P80188); assay: as above
[10] = biological target: Wild-type recombinant human NGAL monomer expressed in CHO cells (human) (UniProt P80188); assay: as above
[11] = biological target: Wild-type recombinant human NGAL dimer calibrators treated with DTT (human) (UniProt P80188); assay: … sandwich CMIA, capture HYB 211-01, detection acridinium-HYB 211-02; calibrator E, NGAL 600 ng/mL
[12] = biological target: Wild-type recombinant human NGAL dimer expressed in CHO cells (human) (UniProt P80188); assay: as above
[13] = biological target: Wild-type recombinant human NGAL monomer expressed in CHO cells (human) (UniProt P80188); assay: as above
[14] = biological target: Wild-type recombinant human NGAL dimer calibrators treated with DTT (human) (UniProt P80188); assay: … sandwich CMIA, capture HYB 211-01, detection acridinium-HYB 211-02; DTT-treated against untreated dimer calibrator; target 250 ng/mL
[15] = biological target: Wild-type recombinant human NGAL dimer calibrators treated with DTT (human) (UniProt P80188); assay: … sandwich CMIA, capture HYB 211-01, detection acridinium-HYB 211-02; DTT-treated against untreated dimer calibrator; target 600 ng/mL
[16] = biological target: Wild-type recombinant human NGAL monomer expressed in CHO cells (human) (UniProt P80188); assay: … sandwich CMIA, capture 1-2322-455, detection acridinium-1-903-430; NGAL 50 ng/mL
[17] = biological target: Wild-type recombinant human NGAL dimer expressed in CHO cells (human) (UniProt P80188); assay: … sandwich CMIA, capture 1-2322-455, detection acridinium-1-903-430; NGAL 600 ng/mL
[18] = biological target: Wild-type recombinant human NGAL monomer expressed in CHO cells (human) (UniProt P80188); assay: as above
[19] = biological target: Wild-type recombinant human NGAL dimer calibrators with TCEP in the reaction mixture (human) (UniProt P80188); assay: … sandwich CMIA, capture 1-2322-455, detection acridinium-1-903-430; TCEP in reaction; NGAL 5 ng/mL
[20] = biological target: Wild-type recombinant human NGAL dimer calibrators with TCEP in the reaction mixture (human) (UniProt P80188); assay: … sandwich CMIA, capture 1-2322-455, detection acridinium-1-903-430; TCEP in reaction; NGAL 250 ng/mL
[21] = biological target: Wild-type recombinant human NGAL monomer expressed in CHO cells (human) (UniProt P80188); assay: … sandwich CMIA, capture 1-2322-455, detection acridinium-1-903-430; monomer calibrator plus TCEP; NGAL 250 ng/mL
[22] = biological target: Wild-type recombinant human NGAL monomer expressed in CHO cells (human) (UniProt P80188); assay: … sandwich CMIA, capture 1-2322-455, detection acridinium-1-903-430; monomer calibrator plus TCEP; NGAL 600 ng/mL
[23] = biological target: Wild-type recombinant human NGAL monomer expressed in CHO cells (human) (UniProt P80188); assay: … sandwich CMIA, capture 1-2322-455, detection acridinium-1-903-430; monomer calibrator plus TCEP; NGAL 1000 ng/mL
[24] = biological target: Wild-type recombinant human NGAL dimer calibrators with TCEP in the reaction mixture (human) (UniProt P80188); assay: … sandwich CMIA, capture 1-2322-455, detection acridinium-1-903-430; TCEP in reaction; curve fit with monomer calibrators; target 1000 ng/mL
[25] = biological target: Wild-type recombinant human NGAL monomer expressed in CHO cells (human) (UniProt P80188); assay: … sandwich CMIA, capture 1-2322-455, detection acridinium-1-903-430; monomer calibrator plus TCEP; curve fit with monomer calibrators; target 600 ng/mL

- RLUs [1]: 15300 RLUs
- RLUs [2]: 11400 RLUs
- RLUs [3]: 4050 RLUs
- RLUs [4]: 12000 RLUs
- RLUs [5]: 11400 RLUs
- RLUs [6]: 4050 RLUs
- RLUs [7]: 12000 RLUs
- RLUs [8]: 378000 RLUs
- RLUs [9]: 142000 RLUs
- RLUs [10]: 396000 RLUs
- RLUs [11]: 676000 RLUs
- RLUs [12]: 282000 RLUs
- RLUs [13]: 691000 RLUs
- % Increase due to DTT [14]: 229%
- % Increase due to DTT [15]: 256%
Molecule: anti-NGAL antibody HYB 211-01 from AntibodyShop A/S, Gentofte, Denmark

- RLUs [16]: 240000 RLUs
- RLUs [17]: 680000 RLUs
- RLUs [18]: 1.51e+06 RLUs
- RLUs [19]: 15000 RLUs
- RLUs [20]: 535000 RLUs
- RLUs [21]: 928000 RLUs
- RLUs [22]: 1.53e+06 RLUs
- RLUs [23]: 1.95e+06 RLUs
- Curve Fit Results [24]: 497 ng/mL
- Curve Fit Results [25]: 608 ng/mL
B1: antibody produced by murine hybridoma cell line 1-2322-455 having ATCC Accession No. PTA-8024 (antibody, V domains shown)
VH: EVQLVESGGGLVQPGGSLKLSCAASGFTFNNYYMSWVRQTPERRLEWVAYISSSGGSTYYSDSVRGRFTISRDTARNTLYLQMTSLKSEDTAMYYCARHFGDYSYFDYWGQGTTLTVSS
VL: DIQMTQSPASLSASVGETVTITCRASENFYSYLAWYQQKQGKSPQLLVYNAKTLAEGVPSRFSGSGSGTQFSLKINSLQPEDFGTYYCQHHYDIPLTFGAGTKLELKR
